Laboratory results as given in US20250171534A1 (D2M BIOTHERAPEUTICS, published 2025).

Assays:
[1] = target: T1, LILRB2-ECD-His (SinoBiological, Cat #: 14132-H08H-B) (Homo sapiens (Human), UniProt Q8N423 22-460, biotinylated (site not stated)); experiment: competition ELISA: plate coated with CD1D, biotinylated LILRB2 pre-incubated with titrated antibody, streptavidin-HRP and TMB, OD450
[2] = target: T1, LILRB2-ECD-His (SinoBiological, Cat #: …); experiment: competition ELISA: plate coated with ANGPTL5, biotinylated LILRB2 pre-incubated with titrated antibody, streptavidin-HRP and TMB, OD450
[3] = target: T2, LILRB2-ECD-HIS (SinoBiological Cat #: 14132-H02H) (human, UniProt Q8N423 22-460); experiment: SPR (Carterra), LILRB2-ECD-his
T2 construct: Bought protein; also called monomeric antigen LILRB2-ECD-HIS; not shown: His tag
T2 sequence (Q8N423 other isoform, or with tags, fused parts or gaps H02H H02H): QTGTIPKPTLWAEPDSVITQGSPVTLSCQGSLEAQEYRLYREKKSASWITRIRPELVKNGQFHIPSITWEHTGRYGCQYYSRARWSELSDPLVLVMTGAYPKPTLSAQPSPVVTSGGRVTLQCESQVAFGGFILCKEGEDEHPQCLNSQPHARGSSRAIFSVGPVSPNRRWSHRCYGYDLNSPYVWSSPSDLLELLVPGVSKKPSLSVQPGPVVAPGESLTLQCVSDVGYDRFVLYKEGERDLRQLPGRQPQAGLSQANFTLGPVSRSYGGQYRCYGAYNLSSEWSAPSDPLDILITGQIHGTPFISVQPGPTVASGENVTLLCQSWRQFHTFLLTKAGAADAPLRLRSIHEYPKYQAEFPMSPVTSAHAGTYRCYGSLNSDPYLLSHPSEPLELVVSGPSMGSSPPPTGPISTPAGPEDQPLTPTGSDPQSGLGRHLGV

[4] = target: T3, human LILRB1 expressed on cells (human, UniProt Q8NHL6 24-650); experiment: flow cytometry on CHO-LILRB1 cells, non-linear fit of the curves of FIG. 26A
T3 construct: In 293T cells it was expressed from pCMV3-LILRB1-GFP; also called CHO-LILRB1; Jurkat-LILRB1
T3 sequence (Q8NHL6 other isoform, or with tags, fused parts or gaps limits assumed): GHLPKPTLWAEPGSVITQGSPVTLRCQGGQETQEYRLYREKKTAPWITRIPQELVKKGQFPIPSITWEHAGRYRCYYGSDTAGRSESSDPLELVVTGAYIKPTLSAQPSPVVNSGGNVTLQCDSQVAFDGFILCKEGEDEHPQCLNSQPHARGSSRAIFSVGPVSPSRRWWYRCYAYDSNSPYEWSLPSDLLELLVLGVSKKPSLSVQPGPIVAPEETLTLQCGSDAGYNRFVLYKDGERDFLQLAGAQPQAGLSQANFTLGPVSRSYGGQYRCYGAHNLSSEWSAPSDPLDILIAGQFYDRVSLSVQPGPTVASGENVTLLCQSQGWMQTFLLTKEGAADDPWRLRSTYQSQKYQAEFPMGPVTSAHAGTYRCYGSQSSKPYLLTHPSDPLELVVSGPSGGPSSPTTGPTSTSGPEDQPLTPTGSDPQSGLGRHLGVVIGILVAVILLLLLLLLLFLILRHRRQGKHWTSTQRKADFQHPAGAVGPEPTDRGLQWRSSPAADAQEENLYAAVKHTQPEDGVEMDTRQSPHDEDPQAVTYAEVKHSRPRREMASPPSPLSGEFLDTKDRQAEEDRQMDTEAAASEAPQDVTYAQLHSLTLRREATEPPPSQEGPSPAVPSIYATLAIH

[5] = target: T4, LILRB1-ECD-HIS (SinoBiological Cat #: 16014-H02H) (human, UniProt Q8NHL6 24-461); experiment: SPR (Carterra), LILRB1-ECD-his
T4 construct: Bought protein; also called monomeric antigen LILRB1-ECD-HIS; not shown: His tag
T4 sequence (Q8NHL6 other isoform, or with tags, fused parts or gaps H02H H02H): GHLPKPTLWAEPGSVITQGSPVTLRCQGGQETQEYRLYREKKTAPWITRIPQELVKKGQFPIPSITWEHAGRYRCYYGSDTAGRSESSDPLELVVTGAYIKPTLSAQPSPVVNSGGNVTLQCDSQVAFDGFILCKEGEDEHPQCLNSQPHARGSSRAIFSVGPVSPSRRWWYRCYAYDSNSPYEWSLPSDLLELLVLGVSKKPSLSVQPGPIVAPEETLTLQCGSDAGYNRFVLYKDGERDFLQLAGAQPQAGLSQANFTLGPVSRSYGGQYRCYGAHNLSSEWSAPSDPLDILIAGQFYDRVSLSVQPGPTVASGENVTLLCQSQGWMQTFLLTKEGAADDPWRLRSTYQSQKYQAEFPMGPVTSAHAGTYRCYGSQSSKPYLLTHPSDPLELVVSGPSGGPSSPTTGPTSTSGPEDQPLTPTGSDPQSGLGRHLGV

[6] = target: T1, LILRB2-ECD-His (SinoBiological, Cat #: …); experiment: competition ELISA: plate coated with CD1C, biotinylated LILRB2 pre-incubated with titrated antibody, streptavidin-HRP and TMB, OD450
[7] = target: T3, human LILRB1 expressed on cells; experiment: flow cytometry, Jurkat-LILRB1 cells; blocked ligand: APC HLA-G trimer tetramer
[8] = target: T3, human LILRB1 expressed on cells; experiment: flow cytometry on CHO-LILRB1 cells (CHO-RB1); D2M002-126 as stock or kept in PBS or human plasma at 37 °C for 1, 2 or 3 weeks; labelled anti-human Fc, gMFI
[9] = target: T3, human LILRB1 expressed on cells; experiment: flow cytometry on CHO-LILRB1 cells (CHO-RB1), titrated antibody, labelled anti-human Fc, gMFI
[10] = target: T5, human LILRB2 expressed on cells (human, UniProt Q8N423 22-597); experiment: flow cytometry, Jurkat-LILRB2 cells; blocked ligand: APC HLA-G monomer tetramer
T5 construct: In 293T cells it was expressed from pCMV3-LILRB2-GFP; also called CHO-LILRB2; Jurkat-LILRB2
T5 sequence (Q8N423 other isoform, or with tags, fused parts or gaps limits assumed): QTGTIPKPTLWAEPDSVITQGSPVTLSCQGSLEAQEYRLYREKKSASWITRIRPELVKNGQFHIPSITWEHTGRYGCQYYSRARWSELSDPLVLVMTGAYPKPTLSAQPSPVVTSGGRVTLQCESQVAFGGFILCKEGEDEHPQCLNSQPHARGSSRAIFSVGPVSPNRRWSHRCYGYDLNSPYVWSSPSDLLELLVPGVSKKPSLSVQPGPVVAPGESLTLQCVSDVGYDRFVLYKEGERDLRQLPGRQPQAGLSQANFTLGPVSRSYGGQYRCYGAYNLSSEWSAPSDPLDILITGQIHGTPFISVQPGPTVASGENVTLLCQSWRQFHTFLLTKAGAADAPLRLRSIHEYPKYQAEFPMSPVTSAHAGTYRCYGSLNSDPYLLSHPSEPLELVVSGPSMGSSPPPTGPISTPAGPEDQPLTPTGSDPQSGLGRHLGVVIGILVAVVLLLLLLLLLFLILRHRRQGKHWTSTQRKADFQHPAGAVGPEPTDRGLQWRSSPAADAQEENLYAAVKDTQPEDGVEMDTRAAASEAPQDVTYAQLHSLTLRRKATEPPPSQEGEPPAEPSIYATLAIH

[11] = target: T6, LILRA1 expressed on cells (human, UniProt O75019 17-489); experiment: flow cytometry on CHO-LILRA1 cells, non-linear fit of the curves of FIG. 26E
T6 construct: whole, on cells; GFP-tagged; also called human LILRA1; CHO-LILRA1
T6 sequence (O75019 17-489): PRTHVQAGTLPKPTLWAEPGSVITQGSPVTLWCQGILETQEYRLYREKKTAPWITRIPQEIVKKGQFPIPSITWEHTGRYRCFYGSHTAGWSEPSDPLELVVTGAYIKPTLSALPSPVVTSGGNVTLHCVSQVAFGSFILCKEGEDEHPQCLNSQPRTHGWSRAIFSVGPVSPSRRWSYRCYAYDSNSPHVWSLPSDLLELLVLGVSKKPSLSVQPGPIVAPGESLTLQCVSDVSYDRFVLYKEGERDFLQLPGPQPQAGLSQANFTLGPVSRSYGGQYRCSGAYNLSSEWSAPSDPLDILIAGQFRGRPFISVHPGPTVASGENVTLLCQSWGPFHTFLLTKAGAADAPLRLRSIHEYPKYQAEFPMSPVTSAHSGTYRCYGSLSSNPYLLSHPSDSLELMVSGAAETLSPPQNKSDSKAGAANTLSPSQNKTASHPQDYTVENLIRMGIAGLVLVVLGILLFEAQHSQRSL

[12] = target: T5, human LILRB2 expressed on cells; experiment: flow cytometry on CHO-LILRB2 cells (CHO-RB2), titrated antibody, labelled anti-human Fc, gMFI
[13] = target: T5, human LILRB2 expressed on cells; experiment: flow cytometry on CHO-LILRB2 cells (CHO-RB2); D2M002-126 as stock or kept in PBS or human plasma at 37 °C for 1, 2 or 3 weeks; labelled anti-human Fc, gMFI
[14] = target: T1, LILRB2-ECD-His (SinoBiological, Cat #: …); experiment: competition ELISA: plate coated with SEMA4A, biotinylated LILRB2 pre-incubated with titrated antibody, streptavidin-HRP and TMB, OD450
[15] = target: T7, LILRA6 expressed on cells (human, UniProt Q6PI73 24-481); experiment: flow cytometry on CHO-LILRA6 cells (CHO-RA6), titrated antibody, labelled anti-human Fc, gMFI
T7 construct: whole, on cells; GFP-tagged; also called human LILRA6; CHO-LILRA6
T7 sequence (Q6PI73 24-481): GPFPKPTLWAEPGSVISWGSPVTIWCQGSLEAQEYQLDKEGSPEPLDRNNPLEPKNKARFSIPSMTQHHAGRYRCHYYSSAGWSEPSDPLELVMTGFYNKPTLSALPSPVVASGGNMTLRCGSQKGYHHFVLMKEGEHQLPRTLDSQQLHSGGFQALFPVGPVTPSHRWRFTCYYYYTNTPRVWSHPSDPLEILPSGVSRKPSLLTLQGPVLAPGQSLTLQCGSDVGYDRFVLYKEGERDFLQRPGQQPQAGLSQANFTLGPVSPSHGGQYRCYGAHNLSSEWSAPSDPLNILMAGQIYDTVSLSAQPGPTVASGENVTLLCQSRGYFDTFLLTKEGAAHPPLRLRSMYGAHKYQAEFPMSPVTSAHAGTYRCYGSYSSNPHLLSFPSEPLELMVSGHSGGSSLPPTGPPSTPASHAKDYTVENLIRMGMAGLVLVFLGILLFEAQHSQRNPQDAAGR

[16] = target: T1, LILRB2-ECD-His (SinoBiological, Cat #: …); experiment: competition ELISA: plate coated with ANGPTL2, biotinylated LILRB2 pre-incubated with titrated antibody, streptavidin-HRP and TMB, OD450
[17] = target: T1, LILRB2-ECD-His (SinoBiological, Cat #: …); experiment: competition ELISA: plate coated with MAG, biotinylated LILRB2 pre-incubated with titrated antibody, streptavidin-HRP and TMB, OD450
[18] = target: T6, LILRA1 expressed on cells; experiment: flow cytometry on CHO-LILRA1 cells (CHO-RA1), titrated antibody, labelled anti-human Fc, gMFI
[19] = target: T5, human LILRB2 expressed on cells; experiment: flow cytometry, Jurkat-LILRB2 cells
[20] = target: T5, human LILRB2 expressed on cells; experiment: flow cytometry on CHO-LILRB2 cells, non-linear fit of the curves of FIG. 26B
[21] = target: T8, LILRB3 expressed on cells (human, UniProt O75022 24-631); experiment: flow cytometry on CHO-LILRB3 cells (CHO-RB3), titrated antibody, labelled anti-human Fc, gMFI
T8 construct: whole, on cells; Expressed with a GFP tag from the bought plasmid; also called human LILRB3; CHO-LILRB3

[22] = target: T4, LILRB1-ECD-HIS (SinoBiological Cat #: …); experiment: BLI (Gator), RB1-ECD-his
[23] = target: T3, human LILRB1 expressed on cells; experiment: flow cytometry, Jurkat-LILRB1 cells
[24] = target: T2, LILRB2-ECD-HIS (SinoBiological Cat #: …); experiment: BLI (Gator), RB2-ECD-his
[25] = target: T7, LILRA6 expressed on cells; experiment: flow cytometry on 293T cells transiently expressing LILRA6, APC anti-human Fc; gMFI as fold to IgG staining
[26] = target: T9, LILRA2 expressed on 293T cells (UniProt Q8N149 24-483, limits assumed); experiment: flow cytometry on 293T cells transiently expressing LILRA2, APC anti-human Fc; gMFI as fold to IgG staining
T9 construct: whole, on cells; GFP-tagged, transient
T9 sequence (Q8N149 24-483 limits assumed): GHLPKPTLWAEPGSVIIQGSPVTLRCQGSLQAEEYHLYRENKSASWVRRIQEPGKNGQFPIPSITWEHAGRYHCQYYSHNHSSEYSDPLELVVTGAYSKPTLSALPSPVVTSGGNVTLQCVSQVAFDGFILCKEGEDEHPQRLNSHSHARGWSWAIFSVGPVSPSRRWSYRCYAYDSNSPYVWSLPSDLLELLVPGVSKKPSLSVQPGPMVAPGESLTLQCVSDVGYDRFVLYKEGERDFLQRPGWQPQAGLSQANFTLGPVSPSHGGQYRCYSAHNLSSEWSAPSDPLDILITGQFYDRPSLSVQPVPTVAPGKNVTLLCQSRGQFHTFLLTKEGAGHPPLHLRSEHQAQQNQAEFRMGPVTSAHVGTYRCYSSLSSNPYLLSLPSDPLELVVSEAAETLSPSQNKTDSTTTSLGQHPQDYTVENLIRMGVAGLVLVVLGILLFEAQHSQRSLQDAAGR

[27] = target: T10, LILRB4 expressed on 293T cells (UniProt Q8NHJ6 22-448, limits assumed); experiment: flow cytometry on 293T cells transiently expressing LILRB4, APC anti-human Fc; gMFI as fold to IgG staining
T10 construct: whole, on cells; GFP-tagged, transient

[28] = target: T11, LILRA4 expressed on 293T cells (UniProt P59901 24-499, limits assumed); experiment: flow cytometry on 293T cells transiently expressing LILRA4, APC anti-human Fc; gMFI as fold to IgG staining
T11 construct: whole, on cells; GFP-tagged, transient

[29] = target: T3, human LILRB1 expressed on cells; experiment: flow cytometry, CHO-LILRB1 cells
[30] = target: T12, LILRA5 expressed on 293T cells (UniProt A6NI73 42-299, limits assumed); experiment: flow cytometry on 293T cells transiently expressing LILRA5, APC anti-human Fc; gMFI as fold to IgG staining
T12 construct: whole, on cells; GFP-tagged, transient
T12 sequence (A6NI73 42-299 limits assumed): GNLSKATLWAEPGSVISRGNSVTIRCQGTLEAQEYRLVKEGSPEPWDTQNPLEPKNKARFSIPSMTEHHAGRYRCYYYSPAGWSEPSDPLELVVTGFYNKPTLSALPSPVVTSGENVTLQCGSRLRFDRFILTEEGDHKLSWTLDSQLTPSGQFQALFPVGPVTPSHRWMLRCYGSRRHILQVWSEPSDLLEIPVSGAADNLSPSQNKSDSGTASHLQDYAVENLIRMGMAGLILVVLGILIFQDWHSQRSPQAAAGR

[31] = target: T3, human LILRB1 expressed on cells; experiment: flow cytometry, CHO-LILRB1 cells; remark: listed apart in the source
[32] = target: T3, human LILRB1 expressed on cells; experiment: flow cytometry, CHO-LILRB1 cells; blocked ligand: APC HLA-G trimer tetramer
[33] = target: T6, LILRA1 expressed on cells; experiment: flow cytometry on 293T cells transiently expressing LILRA1, APC anti-human Fc; gMFI as fold to IgG staining
[34] = target: T13, LILRA3 expressed on 293T cells (UniProt Q8N6C8 24-439, limits assumed); experiment: flow cytometry on 293T cells transiently expressing LILRA3, APC anti-human Fc; gMFI as fold to IgG staining
T13 construct: whole, on cells; GFP-tagged, transient
T13 sequence (Q8N6C8 24-439 limits assumed): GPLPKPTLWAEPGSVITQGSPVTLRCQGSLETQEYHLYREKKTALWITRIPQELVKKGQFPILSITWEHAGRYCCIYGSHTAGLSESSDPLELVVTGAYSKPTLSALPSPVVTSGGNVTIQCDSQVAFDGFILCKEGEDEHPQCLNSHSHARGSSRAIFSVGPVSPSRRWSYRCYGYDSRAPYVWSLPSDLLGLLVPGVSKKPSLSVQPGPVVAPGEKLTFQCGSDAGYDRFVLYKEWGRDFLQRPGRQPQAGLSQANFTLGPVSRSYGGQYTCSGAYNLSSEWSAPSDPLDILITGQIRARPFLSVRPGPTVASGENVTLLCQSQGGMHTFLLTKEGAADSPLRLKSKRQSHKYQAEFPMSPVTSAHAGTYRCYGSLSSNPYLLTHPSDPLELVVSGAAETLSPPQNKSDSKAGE

[35] = target: T5, human LILRB2 expressed on cells; experiment: flow cytometry on 293T cells transiently expressing LILRB2, APC anti-human Fc; gMFI as fold to IgG staining
[36] = target: T14, LILRB5 expressed on 293T cells (UniProt O75023 24-590, limits assumed); experiment: flow cytometry on 293T cells transiently expressing LILRB5, APC anti-human Fc; gMFI as fold to IgG staining
T14 construct: whole, on cells; GFP-tagged, transient
T14 sequence (O75023 24-590 limits assumed): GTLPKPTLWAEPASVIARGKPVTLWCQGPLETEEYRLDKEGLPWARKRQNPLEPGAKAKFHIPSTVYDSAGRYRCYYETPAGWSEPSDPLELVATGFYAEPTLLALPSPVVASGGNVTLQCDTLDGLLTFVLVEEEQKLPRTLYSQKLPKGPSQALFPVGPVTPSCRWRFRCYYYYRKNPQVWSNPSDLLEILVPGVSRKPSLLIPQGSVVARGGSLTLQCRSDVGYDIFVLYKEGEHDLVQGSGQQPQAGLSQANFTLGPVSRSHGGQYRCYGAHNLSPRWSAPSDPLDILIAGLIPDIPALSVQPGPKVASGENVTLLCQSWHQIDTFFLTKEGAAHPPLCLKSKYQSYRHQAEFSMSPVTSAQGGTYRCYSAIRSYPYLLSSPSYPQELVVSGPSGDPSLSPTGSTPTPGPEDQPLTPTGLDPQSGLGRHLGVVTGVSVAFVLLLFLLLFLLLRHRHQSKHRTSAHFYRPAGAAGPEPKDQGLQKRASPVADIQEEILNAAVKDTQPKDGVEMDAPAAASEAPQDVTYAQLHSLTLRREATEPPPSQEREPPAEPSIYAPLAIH

[37] = target: T3, human LILRB1 expressed on cells; experiment: flow cytometry, CHO-LILRB1 cells; remark: listed apart in the source
[38] = target: T8, LILRB3 expressed on cells; experiment: flow cytometry on 293T cells transiently expressing LILRB3, APC anti-human Fc; gMFI as fold to IgG staining

T1 sequence (Q8N423 other isoform, or with tags, fused parts or gaps H08H H08H): as the sequence (Q8N423 other isoform, or with tags, fused parts or gaps H02H H02H) above

B1: D2M002-126 (antibody, V domains shown)
VH: QVQLVQSGAEVKKPGASVKVSCKASGYTFTSYWIEWVRQAPGQGLEWIGEILPGDESTNYNAKFKGRVTFTTDTSTSTAYMELRSLRSDDTAVYYCARSGAGGYDSGAFAYWGQGTLVTVSS
VL: AIQLTQSPSSLSASVGDRVTITCRASESVDTYGNSFMHWYQQKPGKAPKLLVYRTSNLESGVPSRFSGSGSGTDFTLTISSLQPEDFATYYCQQSNEDPWTFGGGTKVEIK
notes: Humanized and optimized variant of D2M002-026
For B1, the “IC50 (read off the curve)” value [1] was roughly 2 µg/mL, the “IC50 (read off the curve)” value [2] was roughly 1 µg/mL and the Kd [3] was 0.119 nM. For the same binder, the koff [3] was 5.89e-05 s⁻¹, the kon [3] was 496000 M⁻¹ s⁻¹ and the EC50 [4] was 0.388 µg/mL. It also gave a MaxMFI [4] of 113000, a Kd [5] of 0.515 nM and a koff [5] of 2.17e-05 s⁻¹. The kon [5] was 42100 M⁻¹ s⁻¹, the “IC50 (read off the curve)” value [6] was roughly 2 µg/mL and the IC50 [7] was 0.304 µg/mL. The “EC50 (read off the curve)” value [8] was roughly 0.3 µg/mL, the “EC50 (read off the curve)” value [9] was roughly 0.4 µg/mL and the IC50 [10] was 0.015 µg/mL. The EC50 [11] was 0.102 µg/mL, the MaxMFI [11] was 27500 and the “EC50 (read off the curve)” value [12] was roughly 0.2 µg/mL. The “EC50 (read off the curve)” value [13] was roughly 0.1 µg/mL, the “IC50 (read off the curve)” value [14] was roughly 1 µg/mL and the binding result [15] was “no binding (tested: about 30 µg/mL (log10 about 1.5))”. For the same binder, the “IC50 (read off the curve)” value [16] was roughly 1 µg/mL, the “IC50 (read off the curve)” value [17] was roughly 1 µg/mL and the “EC50 (read off the curve)” value [18] was roughly 0.1 µg/mL. For the same binder, the EC50 [19] was 0.081 µg/mL, the EC50 [20] was 0.206 µg/mL and the MaxMFI [20] was 33600. For the same binder, the binding result [21] was “no binding (tested: about 30 µg/mL (log10 about 1.5))”, the Kd [22] was 0.366 nM and the EC50 [23] was 1.45 µg/mL. The Kd [24] was 0.0482 nM.

B2: Anti-LILRB1 antibody 3C1 (antibody, human IgG4 S228P, lambda, V domains shown)
VH: EVQLVESGGGLVQPGGSLRLSCAASGFTFSDYDMHWVRQATGKGLEWVATIDTAGDTYYPDSVRGRFTISRENAKNSLSLQMNSLRAGDTAVYFCARDVPGTGFDHWGQGTLVTVSS
VL: SSELTQDPAVSVALGQTVRITCQGDSLRSYYESWYQQKPGQAPVLVIYGKNNRPSGIPDRFSGSISGNTASLTITGTQAEDEADYYCNSRDNSGDHWVFGGGTRLTVLG
B2: no binding (tested: 5 µg/mL) [25]; no binding (tested: 5 µg/mL) [26]; no binding (tested: 5 µg/mL) [27]. The binding result [28] was “no binding (tested: 5 µg/mL)”, the “EC50 (read off the curve)” value [29] was roughly 0.02 µg/mL and the binding result [30] was “no binding (tested: 5 µg/mL)”. For the same binder, the EC50 [31] was 0.033 µg/mL, the IC50 [32] was 0.012 µg/mL and the binding result [33] was “no binding (tested: 5 µg/mL)”. B2: no binding (tested: 5 µg/mL) [34]; no binding (tested: 5 µg/mL) [35]; no binding (tested: 5 µg/mL) [36]. For the same binder, the EC50 [37] was 0.016 µg/mL, the “gMFI (max)” value [37] was 23000 and the binding result [38] was “no binding (tested: 5 µg/mL)”.
